Test results as given in patent US10858423B2, “Composition for the treatment of IGF-1R expressing cancer” (PIERRE FABRE MEDICAMENT, priority 2015, dated 2020).
Numbering of substitutions follows the chain as printed.

B1: hz208F2 H077/L018: humanized 208F2; VH SEQ ID No. 57, VL SEQ ID No. 34 (antibody, V domains shown)
VH: QVQLVQSGAEVKKPGASVKVSCKASGYTFTSYYIHWVRQAPGQGLEWMGWIWPGDGSTKYAQKFQGRVTMTRDTSTSTVYMELSSLRSEDTAVYFCASPMITPNYAMDYWGQGTLVTVSS
VL: DIQMTQSPSSLSASVGDRVTITCRASQDISKYLNWYQQKPGKAPKLLIYYTSRLQSGVPSRFSGRGSGTDYSLTISSLQPEDFATYFCQQGSTLPYTFGGGTKVEIK
modifications: hz208F2 heavy chain H077, VH; hz208F2 Light chain L018, VL
B2: hz208F2 H049/L021: humanized 208F2; VH SEQ ID No. 41, VL SEQ ID No. 37 (antibody, V domains shown)
VH: B1 VH with I34M, T74K, T76S, F95Y
VL: B1 VL with Q55H, Y71F
modifications: hz208F2 heavy chain H049, VH; hz208F2 Light chain L021, VL
B3: hz208F2 H076/L021: humanized 208F2; VH SEQ ID No. 55, VL SEQ ID No. 37 (antibody, V domains shown)
VH: B1 VH with F95Y
VL: B1 VL with Q55H, Y71F
modifications: hz208F2 heavy chain H076, VH; hz208F2 Light chain L021, VL
B4: 810D12: first IGF-1R mouse monoclonal antibody, hybridoma CNCM I-4893; VH SEQ ID No. 7, VL SEQ ID No. 8 (antibody, V domains shown)
VH: EVQLQQSGPELVKPGASVKMSCKASGHTFTSYMLHWVKQKPGQGLEWLGFINPYNDVTKYNENFKGKATLTSDKSSSTAYMELNSLTSEDSAVYFCVTTAYYGNGRYFDVWGAGTTVTVSS
VL: DIQMTQTTSSLSASLGDRVTISCRASQDITNYLTWYQQKPDGTVKVLIYYTSRLYSGVPSRFSGSGSGSDYSLTINNLEQEDIATYFCQQGYSLPWTFGGGTKLEIK
modifications: 810D12 I-4893, heavy chain, Variable domain; 810D12 I-4893, light chain, Variable domain
B5: 816C12: first IGF-1R mouse monoclonal antibody, hybridoma CNCM I-4894; VH SEQ ID No. 17, VL SEQ ID No. 18 (antibody, V domains shown)
VH: EVQLQQSGPELVKPGASVKMSCKASGHTFTSYVLHWMKRKPGQGLEWIGYINPHNDVTKYNENFKGKATLTSDKYSSTVYMEVSSLTSEDSAVYYCVSTAYYGNGRYFDVWGAGTTVTVSS
VL: B4 VL with T30N, T34N, V46L, Y55H, P59S, S69T, N76S, Y92N, S93T
modifications: 816C12 I-4894, heavy chain, Variable domain; 816C12 I-4894, light chain, Variable domain

Key:
[1] = molecular target: T1, IGF-1R on MCF-7 cells (Homo sapiens, UniProt P08069); experiment: IGF-1R internalization by FACS on MCF-7 cells; type: cell-based; settings: Table 14c; MCF-7, 10 μg/ml, 4 h
T1 construct: host or cells: MCF-7
Description: MCF-7 cells were incubated with 10 μg/ml of chimeric antibodies at 4° C. for 20 min. Then, cells were washed and incubated at 4° C. or 37° C. for 4 h. The quantity of cell-surface bound antibody was determined using a secondary antibody. The ΔMFI defined as the difference between MFI measured at 4° C. and MFI measured at 37° C. after a 4 hour incubation time corresponded to the quantity of internalized second IGF-1R antibodies Ab. The percentage of internalization at 10 μg/ml of Ab were calculated as followed 100*(MFI at 4° C.-MFI at 37° C.)/MFI at 4° C. and presented in Table 12.
The capacity of the mAb hz208F2 H026/L024 to be internalized was assessed by flow cytometry. MCF-7 cells were incubated with 10 μg/ml of antibodies at 4° C. for 20 min. […] The quantity of cell-surface bound antibody was determined using a secondary antibody. The ΔMFI defined as the difference between MFI measured at 4° C. and MFI measured at 37° C. after a 4 hour incubation time corresponded to the quantity of internalized Ab. The percentage of internalization at 10 μg/ml of Ab were calculated as followed 100*(MFI at 4° C.-MFI at 37° C.)/MFI at 4° C. and presented in Table 14a.
MCF-7 cells were incubated with 10 μg/ml of humanized antibodies at 4° C. for 20 min. […] The quantity of cell-surface bound antibody was determined using a secondary antibody on a FacsCalibur Flow cytometer (Becton Dickinson). […]

[2] = molecular target: T2, soluble form of h-IGF1R (Homo sapiens, UniProt P08069); experiment: Biacore binding competition on captured soluble h-IGF1R; settings: antibodies 50 μg/ml, 25° C.
T2 construct: a heterotetramer composed by two alpha chains and two extracellular domains of the beta chains; made in house
Description: The experiment was run on a Biacore X100 device based on the Surface Plasmon Resonance technology. A CM5 sensor chip was activated with a mouse anti-polyHistidine IgG1 monoclonal antibody chemically linked to the carboxymethyldextran matrix using the amine coupling chemistry. Typically, 12451 RU and 12257 RU of antibodies were grafted on the flowcell 1 (FC1) and flowcell 2 (FC2) respectively. The classical HBS-EP+ buffer was used as the running buffer. This buffer was also used for the preparation of the solutions of the proteins. The experiment was carried at 25° C. and at a flow rate of […].
The soluble form of IGF1R produced in house is a heterotetramer composed by two alpha chains and two extracellular domains of the beta chains completed by a 6 Histidine sequence at their C-terminal end. The protein is injected during one minute on the FC2 at the concentration of 30 μg/ml (about 80 nM). The antibodies are injected at the concentration of 50 μg/ml (about 330 nM). Either a first antibody solution (FIGS. 35B and 35D) or the running buffer (FIGS. 35A and 35C) is injected during 90 s on both flowcells. A second antibody solution is then injected on both flow cells. The absence of binding of the second antibody after the binding of the first antibody is the proof that both antibodies bind to a nearby site on the antigen (FIG. 35B) At the opposite the binding of the second antibody after the binding of the first antibody is the proof that the binding site of the second antibody is out and away of the binding site of the first antibody (FIG. 35D). At the end of each cycle, the sensor chip surface is regenerated by an injection of a Glycine, HCl 10 mM pH 1.5 buffer during 30 s.
The levels of binding of the Ac2 (arrows) without (FIGS. 35A and 35B) or with an Ac1 (FIGS. 35C and 35D) were recorded 20 s after the end of the injection. The data are represented on the histogram graph in FIG. 36.

[3] = molecular target: T3, MCF-7 breast adenocarcinoma cell line (Homo sapiens, UniProt P08069); experiment: FACS binding of humanized variants on MCF-7
T3 construct: host or cells: MCF-7
Description: The binding properties of the humanized variants were evaluated by FACS analyses on the human MCF-7 breast adenocarcinoma cell line and the monkey cell line Cos-7 using increasing antibody concentrations. For that purpose, cells (1×10^6 cells/ml) were incubated with anti-IGF-1R antibodies for 20 min. at 4° C. in FACS buffer (PBS, 0.1% BSA, 0.01% NaN3). They were then washed 3 times and incubated with the appropriate secondary antibody coupled with Alexa 488 for 20 additional minutes at 4° C. in the dark before being washed 3 times in FACS buffer. The binding of anti-IGF-1R antibodies was immediately performed on viable cells which were identified using propidium iodide (that stains dead cells). The EC50 of binding expressed in molarity (M) was calculated using a nonlinear regression analysis (GraphPad Prims 4.0).

[4] = molecular target: T4, rhIGF-1R (Homo sapiens, UniProt P08069); experiment: direct ELISA on rhIGF-1R coating (816C12, 810D12); type: binding; settings: for OD values obtained at 5 μg/ml by ELISA, rhIGF-1R coating: OD at 450 nm; for EC50: ELISA dose response, Prism
T4 construct: poorly recognize the rhIGF-1R ECD protein when directly coated to ELISA plates; purchased R&D Systems 391-GR
Description: (§1) Further characterizations of 816C12 and 810D12 were then performed using hybridoma supernatant such as rhIGF-1R or rmIGF-1R or rhIR ELISA. In all direct ELISAs, proteins of interest were immobilized (1 μg/ml) to the bottom of each well. After saturation, hybridoma supernatants were added to the wells. After a 1-hour incubation period and a washing step, a solution of goat anti-mouse IgG—HRP labelled polyclonal antibody was used for detection, prior to the addition of the TMB substrate. The reaction was stopped with a 1M H2SO4 solution before reading the OD with a spectrophotometer at a 450 nm wavelength.
The dose response curves for the second IGF-1R antibodies on rhIGF-1R coating are presented in FIG. 1 for the 816C12 and in FIG. 1B for the 810D12. The values of the EC50 are determined using Prism application.

[5] = molecular target: rmIGF-1R (Mus musculus, UniProt Q60751); experiment: direct ELISA on rmIGF-1R coating (816C12, 810D12); type: binding, murine; settings: for OD values obtained at 5 μg/ml by ELISA, rmIGF-1R coating: OD at 450 nm; for binding to the murine form of the IGF-1R: ELISA
Description: as §1

[6] = molecular target: rhIR (Homo sapiens, UniProt P06213); experiment: direct ELISA on rhIR coating (816C12, 810D12); type: binding; settings: for OD values obtained at 5 μg/ml by ELISA, rhIR coating: OD at 450 nm; for binding to the human IR: ELISA
Description: as §1

[7] = molecular target: T5, IGF-1R, MCF-7 tumor cells (Homo sapiens, UniProt P08069); experiment: IHC detection of IGF-1R on MCF-7 xenograft sections; set-up: key: No reactivity or membranous reactivity in less than 10% of tumour cells; 1+: Faint/barely perceptible membranous reactivity is detected in more than 10% of tumour cells. The cells are immunoreactive only in part of the membrane.; 2+: Weak to moderate complete membranous reactivity is seen in more than 10% of tumour cells.; 3+: Strong complete reactivity is seen in more than 10% of tumour cells; settings: membranous algorithm; antibody 5 μg/ml; paraffin embedded tumor
T5 construct: from tissue; host or cells: MCF-7 xenograft tumour grown in Swiss/Nude mice, paraffin sections
Description: (§2) Sections of tissue from MCF-7 xenograft were deparaffinized, rehydrated, and placed in Target Retrieval Buffer 1× (Dako S1699) in a boiling bath pre-warm at 98° C. for heat-induced epitope retrieval at 98° C. for 40 minutes then 20 additional minutes in the Target Retrieval Buffer. After 3 washes in Tris Buffer Saline-0.05% tween 20 (TBS-T) (Dako S3006) the Endogenous peroxidase activity was blocked using Peroxidase Blocking Reagent (Dako K4007) for five minutes. Sections were washed with TBS-T and incubated a blocking reagent (UltraV block-TA-125UB-LabVision) for 5 minutes before incubation with either the 816C12 monoclonal antibody (at 5 μg/ml) or mouse IgG1/kappa (5 μg/ml, X0931, Dako) as negative control for 1 hours at room temperature. Sections were washed with TBS-T and incubated with Envision (Dako) for 30 minutes. Diaminobenzidine was used for development of a brown reaction product (Dako K3468). The slides were immersed in hematoxylin for 2 minutes to counterstain (Dako S3309).

[8] = molecular target: T6, IGF-1R, SBC-5 tumor (Homo sapiens, UniProt P08069); experiment: IHC detection of IGF-1R on SBC-5 xenograft sections; set-up: key: No reactivity or membranous reactivity in less than 10% of tumour cells; 1+: Faint/barely perceptible membranous reactivity is detected in more than 10% of tumour cells. The cells are immunoreactive only in part of the membrane.; 2+: Weak to moderate complete membranous reactivity is seen in more than 10% of tumour cells.; 3+: Strong complete reactivity is seen in more than 10% of tumour cells; settings: same protocol as MCF-7; paraffin embedded tumor
T6 construct: from tissue; host or cells: SBC-5 xenograft tumour grown in athymic mice, paraffin sections
Description: as §2
Level of IGF-1R was analyzed using the same protocol described in section 2.1 of the example 2 before.

rmIGF-1R, sequence (Q60751 31-1373): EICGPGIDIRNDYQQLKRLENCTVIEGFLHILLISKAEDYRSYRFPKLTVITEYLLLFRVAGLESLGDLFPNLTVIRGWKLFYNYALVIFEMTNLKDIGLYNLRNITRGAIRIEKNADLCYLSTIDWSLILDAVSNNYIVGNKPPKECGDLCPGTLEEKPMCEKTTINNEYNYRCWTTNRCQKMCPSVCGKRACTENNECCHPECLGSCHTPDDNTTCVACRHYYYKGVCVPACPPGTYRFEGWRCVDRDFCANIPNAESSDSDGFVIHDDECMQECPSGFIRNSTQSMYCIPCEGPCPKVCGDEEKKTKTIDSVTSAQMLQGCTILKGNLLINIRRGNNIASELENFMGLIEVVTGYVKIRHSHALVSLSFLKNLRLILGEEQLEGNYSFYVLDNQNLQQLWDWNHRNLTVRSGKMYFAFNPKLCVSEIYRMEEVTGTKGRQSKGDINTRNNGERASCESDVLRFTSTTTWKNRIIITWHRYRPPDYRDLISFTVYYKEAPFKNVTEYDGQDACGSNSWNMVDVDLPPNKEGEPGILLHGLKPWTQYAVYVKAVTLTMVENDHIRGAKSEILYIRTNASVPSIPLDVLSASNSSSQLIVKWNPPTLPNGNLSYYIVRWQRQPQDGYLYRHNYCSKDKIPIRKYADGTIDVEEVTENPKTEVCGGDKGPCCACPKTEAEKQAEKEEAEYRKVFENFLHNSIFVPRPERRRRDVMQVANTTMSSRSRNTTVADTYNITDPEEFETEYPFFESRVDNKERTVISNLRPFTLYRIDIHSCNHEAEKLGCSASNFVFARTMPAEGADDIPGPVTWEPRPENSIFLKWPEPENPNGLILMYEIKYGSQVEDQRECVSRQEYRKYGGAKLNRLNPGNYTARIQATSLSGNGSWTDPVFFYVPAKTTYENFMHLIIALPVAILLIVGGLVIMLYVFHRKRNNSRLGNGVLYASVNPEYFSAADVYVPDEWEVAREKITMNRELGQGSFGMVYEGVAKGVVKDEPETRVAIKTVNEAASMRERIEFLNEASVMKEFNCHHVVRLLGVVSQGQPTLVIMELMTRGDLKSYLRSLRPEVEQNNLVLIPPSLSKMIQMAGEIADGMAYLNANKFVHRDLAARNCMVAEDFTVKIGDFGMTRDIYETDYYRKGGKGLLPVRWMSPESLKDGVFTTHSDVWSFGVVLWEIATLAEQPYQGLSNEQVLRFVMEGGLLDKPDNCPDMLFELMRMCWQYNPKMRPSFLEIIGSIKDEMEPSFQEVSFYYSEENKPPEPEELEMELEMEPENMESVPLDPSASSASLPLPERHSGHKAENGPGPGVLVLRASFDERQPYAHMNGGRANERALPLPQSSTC

| Molecule | % Internalization [1] [%] | ΔMFI [1] | binding as Ac2 after Hz208F2-4 injected as Ac1 [2] | EC50 [3] [nM] | OD values obtained at 5 μg/ml by ELISA, rhIGF-1R coating [4] | EC50 [4] [nM] | OD values obtained at 5 μg/ml by ELISA, rmIGF-1R coating [5] | binding to the murine form of the IGF-1R [5] | OD values obtained at 5 μg/ml by ELISA, rhIR coating [6] | binding to the human IR [6] | IHC scoring of the staining of MCF-7 tumor cells [7] | IHC scoring of IGF-1R in SBC-5 tumor [8] |
| --- | --- | --- | --- | --- | --- | --- | --- | --- | --- | --- | --- | --- |
| B1 | 88 | 468 | completely blocks the binding of itself | – | – | – | – | – | – | – | – | – |
| B2 | – | – | – | 0.66 | – | – | – | – | – | – | – | – |
| B3 | – | – | – | 0.58 | – | – | – | – | – | – | – | – |
| B4 | – | – | practically no effect | – | 2.136 | 0.51 | 1.293 | do not bind | 0.048 | do not bind | 3+ | 1+ |
| B5 | – | – | practically no effect | – | 2.622 | 0.41 | 0.065 | do not bind | 0.055 | do not bind | 3+ | 1+ |
